Conditions in all cases: protein: recombinant; label: fluorescein-dT at T8; single-chain dumbbell, 18 bp with central nick, two tetraloops
Data set [1] has as its target T1, PARP-1 F1+F2 (24-kDa DBD) (Homo sapiens, UniProt P09874 1-214). The data set is described as follows: fluorescence anisotropy; 50; 50 mM Tris-HCl pH 7.0, 150 uM ZnSO4, 4 mM DTT, 25 C; NaCl 0-200 mM (T2, as in cof; 10 nM DNA) or 25 mM (T3 mutants; 25 nM DNA).
For data set [2], the target named is T2, PARP-1 F2 (Homo sapiens, UniProt P09874 103-214). The description is as above.
T2 sequence (P09874 103-214): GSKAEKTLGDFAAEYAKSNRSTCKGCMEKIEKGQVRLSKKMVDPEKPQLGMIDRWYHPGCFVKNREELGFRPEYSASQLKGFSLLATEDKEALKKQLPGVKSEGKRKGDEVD
For data set [3], the target named is PARP-1 F2 G135D (Homo sapiens, UniProt P09874 103-214, G135D). Nature of the data set: fluorescence anisotropy; 25 mM NaCl, one-site fit; 50 mM Tris-HCl pH 7.0, 150 uM ZnSO4, 4 mM DTT, 25 C; NaCl 0-200 mM (T2, as in cof; 10 nM DNA) or 25 mM (T3 mutants; 25 nM DNA). On the technique in general: Fluorescence polarisation rises when a labelled molecule tumbles more slowly, as on binding a larger partner.
PARP-1 F2 G135D, sequence (P09874 103-214 G135D): as the sequence (P09874 103-214) above, with G33D counted along it

Data set [4] addresses PARP-1 F2 S120G (Homo sapiens, UniProt P09874 103-214, S120G). Described as above.
The target in data set [5] is T1, PARP-1 F1+F2 (24-kDa DBD). Nature of the data set: fluorescence anisotropy; 0; 50 mM Tris-HCl pH 7.0, 150 uM ZnSO4, 4 mM DTT, 25 C; NaCl 0-200 mM (T2, as in cof; 10 nM DNA) or 25 mM (T3 mutants; 25 nM DNA).
The target of data set [6] is PARP-1 F2 K141I/K142I (Homo sapiens, UniProt P09874 103-214, K141I;K142I). Nature of the data set: fluorescence anisotropy; 25 mM NaCl; apparent, one-site model; FA: 50 mM Tris-HCl pH 7, 150 uM ZnSO4, 4 mM DTT, 0-200 mM NaCl, 25 C, 10 nM DNA (mutants 25 nM DNA, 25 mM NaCl); EMSA: 50 mM Tris-HCl pH 7.4, 150 uM ZnSO4, 4 mM DTT, 10% glycerol, RT incubation, gel at 4 C; NMR complexes: 50 mM Tris pH 7.0, 150 uM ZnSO4, 4 mM DTT, 37 C.
PARP-1 F2 K141I/K142I, sequence (P09874 103-214 K141I/K142I): as the sequence (P09874 103-214) above, with K39I, K40I counted along it

For data set [7], the target named is T3, DNA ligase III alpha zinc finger (DL3) (UniProt P49916-3 1-117).
T3 sequence: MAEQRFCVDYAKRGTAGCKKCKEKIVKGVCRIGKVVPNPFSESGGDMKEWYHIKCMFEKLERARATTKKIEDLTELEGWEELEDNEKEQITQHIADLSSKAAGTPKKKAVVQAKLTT
The data set is described as follows: fluorescence anisotropy; 20 mM pyrophosphate pH 7.0; more similar to F2 than F1; FA: 50 mM Tris-HCl pH 7, 150 uM ZnSO4, 4 mM DTT, 0-200 mM NaCl, 25 C, 10 nM DNA (mutants 25 nM DNA, 25 mM NaCl); EMSA: 50 mM Tris-HCl pH 7.4, 150 uM ZnSO4, 4 mM DTT, 10% glycerol, RT incubation, gel at 4 C; NMR complexes: 50 mM Tris pH 7.0, 150 uM ZnSO4, 4 mM DTT, 37 C.

For data set [8], the target named is T1, PARP-1 F1+F2 (24-kDa DBD). The data set is described as follows: fluorescence anisotropy; 25; 50 mM Tris-HCl pH 7.0, 150 uM ZnSO4, 4 mM DTT, 25 C; NaCl 0-200 mM (T2, as in cof; 10 nM DNA) or 25 mM (T3 mutants; 25 nM DNA).
The target of data set [9] is T1, PARP-1 F1+F2 (24-kDa DBD). Nature of the data set: fluorescence anisotropy; 75; 50 mM Tris-HCl pH 7.0, 150 uM ZnSO4, 4 mM DTT, 25 C; NaCl 0-200 mM (T2, as in cof; 10 nM DNA) or 25 mM (T3 mutants; 25 nM DNA).
Data set [10] addresses T2, PARP-1 F2. Described as above.
In data set [11] the target is T1, PARP-1 F1+F2 (24-kDa DBD). Nature of the data set: fluorescence anisotropy; 100; 50 mM Tris-HCl pH 7.0, 150 uM ZnSO4, 4 mM DTT, 25 C; NaCl 0-200 mM (T2, as in cof; 10 nM DNA) or 25 mM (T3 mutants; 25 nM DNA).
The target of data set [12] is T2, PARP-1 F2. The description is as above.
The target of data set [13] is T1, PARP-1 F1+F2 (24-kDa DBD). The data set is described as follows: fluorescence anisotropy; 200; 50 mM Tris-HCl pH 7.0, 150 uM ZnSO4, 4 mM DTT, 25 C; NaCl 0-200 mM (T2, as in cof; 10 nM DNA) or 25 mM (T3 mutants; 25 nM DNA).
Data set [14] has as its target T1, PARP-1 F1+F2 (24-kDa DBD). Nature of the data set: fluorescence anisotropy; 150; 50 mM Tris-HCl pH 7.0, 150 uM ZnSO4, 4 mM DTT, 25 C; NaCl 0-200 mM (T2, as in cof; 10 nM DNA) or 25 mM (T3 mutants; 25 nM DNA).

T1 sequence (P09874 1-214): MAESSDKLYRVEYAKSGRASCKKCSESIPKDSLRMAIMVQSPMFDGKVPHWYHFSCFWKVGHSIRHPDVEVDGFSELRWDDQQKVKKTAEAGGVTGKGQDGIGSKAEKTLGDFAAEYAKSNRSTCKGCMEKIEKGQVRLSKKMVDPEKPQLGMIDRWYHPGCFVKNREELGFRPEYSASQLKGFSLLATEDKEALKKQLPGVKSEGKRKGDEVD
PARP-1 F2 S120G, sequence (P09874 103-214 S120G): as the sequence (P09874 103-214) above, with S18G counted along it

B1: 44-nt nicked dumbbell, 5'-phosphate, fluorescein-dT (structured_DNA)
DNA: CGGTCGATCGTAAGATCGACCGGCGCTGGAGCTTGCTCCAGCGC
modifications: 5'-phosphate
For the molecule B1, the Kd was determined as 8.02 nM in [1]; 130 nM in [2]; 1710 nM in [3]; 2430 nM in [4]; 5.75 nM in [5]; 3930 nM in data set [6]. In addition, the Kd turned out to be 20.4 nM in [8]; 37 nM in data set [9]; 218 nM in data set [10]; 9.37 nM in data set [11]; 146 nM in data set [12]; 45.4 nM in data set [13]. For the same molecule, in [14], the Kd stood at 24.6 nM. The binding result in data set [7] was “binds”.

These data come from PMC3094755, “The DNA-Binding Domain of Human PARP-1 Interacts with DNA Single-Strand Breaks as a Monomer through Its Second Zinc Finger”.
